Laboratory results taken from paper PMC13379383.

Biological target: thrombin (human, UniProt P00734;P00734 328-363;364-622)
Experiment: AuNP aggregation (plasmonic scattering); 16 nM thrombin, 4.59 uM TBA, 0.1 M NaCl, pH 7.4; LoD 0.5 nM (not a Kd)

AGTCCGTGGTAGGGCAGGTTGGGGTGACT (ssDNA, 5'-amine C6 linker) [TBA (thrombin-binding aptamer)]: binds.
